The target of one test is T1, immobilized RAGE (Homo sapiens, UniProt Q15109).
T1 construct: the extracellular domain of RAGE, comprising a.a; 1-344; purchased R&D Systems 1145-RG; host or cells: mouse myeloma cell line NS0
As to the kind of experiment: Binding of S100 proteins to immobilized RAGE (Biacore). The following applies: 200 nM protein. The method, then: Responses were obtained as Req values after fit of data to a 1:1 binding model or as the signal at late association phase (t˜235 s). Experimental conditions were as in FIG. 1. Signals were not corrected for mass contribution.
In vivo, S100A9 usually forms hetero-dimeric complexes with S100A8.
(§1) Binding analysis was performed using the “surface plasmon resonance” (SPR) technology with a Biacore 3000™ system. This technology allows analysis of an interaction between proteins and small molecules in a real-time and label-free manner. A protein or low-molecular weight compound is injected over a surface (a CM5 sensor chip) with a covalently coupled ligand and the signal produced, expressed as resonance units (RU), is directly proportional to the number and mass of the molecule interacting with the ligand on the surface. Immobilization, regeneration scouting, surface performance tests and binding studies were conducted basically according to the instructions by the manufacturer. Kinetic evaluation of binding data was carried using the BIAevaluation Software Version 3.2 (Biacore AB). Optimization of conditions for immobilization and binding analysis is carried out for each interaction to be studied. A biosensor analysis cycle consists of: (i) injection of S100A9 over the RAGE surface for 3 min (association phase) or (i) injection of S100A9 over the TLR4/MD-2 surfaces, in the absence or presence of 100 ng/mL LPS, for 3 min (association phase); (ii) injection of running buffer for 2.5 min (dissociation phase); (iii) injection of a 30 s pulse of 10 mM glycine-HCl, pH 2.0-2.125 (regeneration phase); and (iv) injection of running buffer for 2 min (stabilization after regeneration) at a flow rate of 30 μl/min.
Recombinant human RAGE was obtained from R&D Systems (cat. No. 1145-RG) as a fusion protein of the extracellular domain of RAGE, comprising a.a. 1-344, and the Fc region of human IgG1 via a peptide linker. The chimeric protein was expressed in the mouse myleoma cell line NSO as a disulfide-linked homo-dimeric protein with a calculated molecular mass of 61 kDa. Prior to covalent coupling to the sensor chip, buffer was changed to a standard Biacore buffer (10 mM Hepes, 0.15 M NaCl, pH 7.4, containing 0.005% v/v Surfactant P20; HBS-P) using Fast Protein Desalting Micro-Spin Columns (Pierce). RAGE was diluted in an immobilization buffer shown to give sufficient pre-concentration and then covalently coupled using the “Aim at immobilization level” function in the Biacore Wizard to obtain various coupling densities. Activity of immobilized RAGE was tested by injecting a specific anti-human RAGE monoclonal antibody over the surface. Due to extensive glycosylation of RAGE relative to that of the Fc domain and a higher mass of the latter, it was also assumed that chimeric RAGE/Fc will be coupled predominantly via the Fc domain and result in a semi-oriented coupling to the sensor chip. HBS-P, with a final concentration of 1 mM CaCl2 and 10 μM ZnCl2, was used as sample and running buffer throughout the study. For regeneration of the surface after each cycle, a pulse of 10 mM glycine-HCl, pH 2.125, was used. To determine optimal zinc concentration for binding of S100A9 protein to RAGE, the interaction was allowed to take place at a fixed calcium concentration (1 mM) and with the zinc concentration titrated from zero to ten μM.
Background: Surface plasmon resonance follows binding to a sensor surface in real time, without labels.

The target of another test is T2, human TLR4/MD-2 (Homo sapiens, UniProt O00206+Q9Y6Y9).
T2 construct: human TLR4 (Glu 24-Lys 631), and 10× histidines; human MD-2 (Glu 17-ASN 160), and 10× histidines; human CD33 signal peptide (Met 1-Ala 16) (N); purchased R&D Systems 3146-TN/CF; host or cells: mouse myeloma cell line NS0
As to the kind of experiment: Biacore direct binding of S100A9 to amine-coupled TLR4/MD-2. The following applies: 1:1 Langmuir binding model. The method, then: The TOLL-like receptor 4 was immobilized on the sensor chip. Binding to S100A9 was detected. […] Sensorgrams from bottom to top represent injection of sample buffer in the absence of S100A9, 100 and 200 nM S100A9 after subtraction of the signal in the reference flow cell. Injection time was 3 min at a flow rate of 30 μL/min and regeneration was performed with a 30 μl pulse of 3 mM EDTA in HBS-P buffer (HBS-EP) for 60 s. Arrows indicate injection of sample (1; association phase), running buffer (2; dissociation phase) and regeneration solution (3). HBS-P containing 1 mM CaCl2 and 10 μM ZnCl2 (Robinson et al. 2002) was used as running and sample buffer. An apparent dissociation constant of […], on- and off-rates of 3.9×10^4 l/Ms and 3.5×10^−4 l/s, and maximal binding at 1.8×10^3 RU were calculated after fitting data to a 1:1 Langmuir binding model (Chi2 6.8).
as §1
Recombinant human TLR4/MD-2 was obtained from R&D Systems (cat. no. 3146-TN/CF) as a non-covalently associated protein of the respective extracellular domains. […]
(§2) Recombinant S100A9, expressed as the full-length sequence of native protein in E. coli was obtained using a four-step purification protocol. […] Buffer was changed to HBS-P using the Fast Protein Desalting Spin Columns and concentration determined in the BCA protein assay from Pierce with bovine albumin as standard. […]

Test [1] has as its target T3, S100A9 binding to immobilized RAGE (Homo sapiens, UniProt P06702).
T3 construct: made in house; host or cells: E. coli
T3 sequence (P06702 1-114): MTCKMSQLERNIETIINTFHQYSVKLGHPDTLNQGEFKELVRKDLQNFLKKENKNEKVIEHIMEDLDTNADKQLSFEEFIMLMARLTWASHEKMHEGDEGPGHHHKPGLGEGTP
As to the kind of experiment: Biacore competition assay: displacement of S100A9 binding to immobilized RAGE. The conditions noted are these: for IC50, displacement of S100A9 binding to RAGE: 200 nM S100A9, log-logit plot, linear regression. The method, then:
Sensorgrams from top to bottom represent: S100A9 without and with 15.625, 31.25, 62.5, 125, 250, 500 and 1000 μM compound A as competitor and from sample buffer without S100A9 and competitor. In (B), binding data is plotted as an inhibition curve (♦) and the response for S100A9 in the absence of competitor (dotted line). In (C), binding data is plotted after log-logit transformation. […] Arrows in (A) indicate start of the association phase (1), i.e. injection of S100A9±competitor, and dissociation phase (2), where running buffer is pumped over the surface. Injection time, flow rate and regeneration conditions were as in FIG. 1.
Binding analysis was performed using the “surface plasmon resonance” (SPR) technology with a Biacore 3000™ system. This technology allows analysis of an interaction between proteins and small molecules in a real-time and label-free manner. A protein or low-molecular weight compound is injected over a surface (a CM5 sensor chip) with a covalently coupled ligand and the signal produced, expressed as resonance units (RU), is directly proportional to the number and mass of the molecule interacting with the ligand on the surface. Immobilization, regeneration scouting, surface performance tests and binding studies were conducted basically according to the instructions by the manufacturer. Kinetic evaluation of binding data was carried using the BIAevaluation Software Version 3.2 (Biacore AB). Optimization of conditions for immobilization and binding analysis is carried out for each interaction to be studied. […]
Recombinant human RAGE was obtained from R&D Systems (cat. No. 1145-RG) as a fusion protein of the extracellular domain of RAGE, comprising a.a. […] The chimeric protein was expressed in the mouse myleoma cell line NSO as a disulfide-linked homo-dimeric protein with a calculated molecular mass of 61 kDa. […]
Recombinant S100A9, expressed as the full-length sequence of native protein in E. coli was obtained using a four-step purification protocol. […]

In the next test the target is T4, human S100A9 (Homo sapiens, UniProt P06702).
T4 construct: made in house; host or cells: E. coli
T4 sequence (P06702 1-114): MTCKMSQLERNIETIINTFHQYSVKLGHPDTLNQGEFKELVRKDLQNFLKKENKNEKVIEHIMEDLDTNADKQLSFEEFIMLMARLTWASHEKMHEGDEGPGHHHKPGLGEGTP
As to the kind of experiment: Biacore competition assay: S100A9 binding to immobilized amino-linked Compound A. The conditions noted are these: sigmoidal dose-response (variable slope) fit. The method, then:
The anti-S100A9 mAb 43/8 ability to block the binding of human S100A9 to amino-linked Compound A was measured by BIACORE™ direct binding assay. The assay was performed by coating amino-linked Compound A on a CM5 chip using standard amine coupling. S100A9 at 100 nM was injected over immobilized Compound A in the absence or presence of mAb 43/8 for 3 min at a flow rate of 30 μl/min in sample buffer (HBS-P buffer containing 1 mM Ca^2+ and […]) (1; association phase), followed by injection of sample buffer (2; dissociation phase).
Responses at late association phase, obtained after injection of 100 nM S100A9, pre-incubated for at least 1 h at room temperature ±12.5-500 nM monoclonal anti-S100A9 antibody, over immobilized Compound A were plotted versus concentration of anti-S100A9 antibody.
Samples were injected for 3 min at 30 μl/min in HBS-P buffer over amine coupled RAGE,TLR4/MD-2 and Compound A. Binding +/− competitor was calculated as response at lateassociation phase or by fit of sensorgrams to a 1:1 Langmuir model. ICso values were calculated by fitting data to a sigmoidal dose-response (variable slope) model in Graph-Pad Prism.

Test [2] concerns the target T5, S100A9 binding to immobilized human TLR4/MD-2 complex (Homo sapiens, UniProt P06702).
T5 construct: made in house; host or cells: E. coli
T5 sequence (P06702 1-114): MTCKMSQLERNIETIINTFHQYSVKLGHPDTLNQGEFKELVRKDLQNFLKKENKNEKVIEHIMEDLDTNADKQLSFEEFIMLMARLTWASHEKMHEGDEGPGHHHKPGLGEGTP
As to the kind of experiment: Biacore competition assay: displacement of S100A9 binding to immobilized TLR4/MD-2. The conditions noted are these: sigmoidal dose-response (variable slope) fit. The method, then:
Sensograms from top to bottom represent: S100A9 without and with 7.8125, 15.625, 31.25, 62.5, 125, 250, 500 and 1000 μM compound A as competitor. In (B), binding data is plotted as an inhibition curve. […] Arrows in (A) indicate start of the association phase (1), i.e. injection of S100A9±competitor, and dissociation phase (2), where running buffer is pumped over the surface. Injection time, flow rate and regeneration conditions were as in FIG. 1. HBS-P containing 1 mM CaCl2 and 10 μM ZnCl2 (Robinson et al. 2002) was used as running and sample buffer.
Binding analysis was performed using the “surface plasmon resonance” (SPR) technology with a Biacore 3000™ system. This technology allows analysis of an interaction between proteins and small molecules in a real-time and label-free manner. A protein or low-molecular weight compound is injected over a surface (a CM5 sensor chip) with a covalently coupled ligand and the signal produced, expressed as resonance units (RU), is directly proportional to the number and mass of the molecule interacting with the ligand on the surface. […]
as §2

From patent US8841421B2, “S100A9 interaction screening method” (Active Biotech, AB, priority 2007, dated 2014) come the findings set out here.

T2 sequence (O00206 24-631): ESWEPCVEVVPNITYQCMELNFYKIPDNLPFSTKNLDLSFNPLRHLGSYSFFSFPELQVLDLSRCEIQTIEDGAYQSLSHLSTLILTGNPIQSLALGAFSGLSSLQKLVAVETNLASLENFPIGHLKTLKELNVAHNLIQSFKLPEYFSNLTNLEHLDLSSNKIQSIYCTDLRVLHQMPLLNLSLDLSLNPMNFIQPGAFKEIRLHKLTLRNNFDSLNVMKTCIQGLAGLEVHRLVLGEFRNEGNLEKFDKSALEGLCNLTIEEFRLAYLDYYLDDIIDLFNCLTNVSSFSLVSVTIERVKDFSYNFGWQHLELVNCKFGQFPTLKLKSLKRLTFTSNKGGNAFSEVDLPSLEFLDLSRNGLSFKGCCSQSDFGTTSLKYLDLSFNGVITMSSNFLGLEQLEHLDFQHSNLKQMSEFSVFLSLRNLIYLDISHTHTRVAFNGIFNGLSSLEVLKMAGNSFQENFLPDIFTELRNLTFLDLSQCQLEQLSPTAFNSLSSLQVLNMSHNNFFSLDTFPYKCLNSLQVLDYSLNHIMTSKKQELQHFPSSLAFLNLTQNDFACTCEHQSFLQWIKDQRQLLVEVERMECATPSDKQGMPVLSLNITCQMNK
T2 sequence (Q9Y6Y9 17-160): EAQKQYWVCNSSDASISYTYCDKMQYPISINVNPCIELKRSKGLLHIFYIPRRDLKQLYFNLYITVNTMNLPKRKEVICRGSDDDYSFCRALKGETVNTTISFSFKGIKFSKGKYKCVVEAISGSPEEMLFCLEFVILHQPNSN
T1 sequence (Q15109 23-344): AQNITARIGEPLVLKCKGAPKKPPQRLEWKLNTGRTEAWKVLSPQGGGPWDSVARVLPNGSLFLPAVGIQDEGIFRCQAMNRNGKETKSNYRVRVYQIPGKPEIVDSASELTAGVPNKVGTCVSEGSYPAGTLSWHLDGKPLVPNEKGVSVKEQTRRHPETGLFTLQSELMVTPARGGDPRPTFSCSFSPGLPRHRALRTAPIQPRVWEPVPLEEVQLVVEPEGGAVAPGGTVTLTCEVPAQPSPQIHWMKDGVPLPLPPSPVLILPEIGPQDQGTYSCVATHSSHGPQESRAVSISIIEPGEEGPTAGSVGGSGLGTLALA

As for “S100A1: S100 protein, putative RAGE ligand [Compound S100A1]”, in the test with immobilized RAGE, the “binding to RAGE (in words)” value is on record as “weak or no binding”.
Turning to “S100A9: recombinant S100A9, full-length sequence of native protein expressed in E. coli; SEQ ID NO: 1 [Compound S100A9]”, the “binding to RAGE relative to next group of RAGE binders (AnxII, S100A12, S100A8/9)” value with immobilized RAGE is reported as “more than 10 fold”. In addition, in the test with human TLR4/MD-2, the maximal binding is on record as 1.8×10^3 RU, the off-rate came out at 0.00035 L/s and the on-rate was 3.9×10^4 l/Ms. In addition, in the test with human TLR4/MD-2 (read-out: apparent dissociation constant), the Kd was determined as 0.086 µM.
As for “S100A8/9 hetero-dimer: hetero-dimeric complex of S100A8 and S100A9”, in the test with immobilized RAGE, the “binding to RAGE (in words)” value is on record as “significantly lower binding”.
On the same count and under the same terms, the same measure for “S100B: S100 protein, putative RAGE ligand [Compound S100B]”: “weak or no binding”.
With heparin, the “IC50, displacement of S100A9 binding to RAGE” value in test [1] was determined as 0.0404 µg/mL.
Usually IC50 stands for the concentration at which inhibition is half-maximal. The low end stands for inhibition by little substance, the high end for a need for much substance. As to `COc1ccc(C2CNC(=O)C2)cc1OC1CCCC1` (racemic) [Rolipram, (+/−)-4-(3-cyclopentyloxy-4-methoxyphenyl)-2-pyrrolidone], the results for the IC50 (on human S100A9; in test [1] (sigmoidal dose-response (variable slope) fit); in test [2]) were 873 µM, 399 µM and 458 µM, respectively.
For heparan sulfate, in test [1], the “IC50, displacement of S100A9 binding to RAGE” value was 0.0257 µg/mL.

B1: S100P: S100 protein, putative RAGE ligand (protein, UniProt P25815 1-95, looked up)
Protein S100-P: MTELETAMGMIIDVFSRYSGSEGSTQTLTKGELKVLMEKELPGFLQSGKDKDAVDKLLKDLDANGDAQVDFSEFIVFVAAITSACHKYFEKAGLK
Take B1: in the test with immobilized RAGE, the “binding to RAGE (in words)” value is on record as “weak or no binding”.

B2: S100A12: S100 protein, putative RAGE ligand; purified from human granulocytes (protein)
chain: TKLEEHLEGIVNIFHQYSVRKGHFDTLSKGELKQLLTKELANTIKNIKDKAVIDEIFQGLDANQDEQVDFQEFISLVAIALKAAHYHTHKE
As to B2, in the test with immobilized RAGE, the “binding to RAGE (in words)” value is recorded as “weak or no binding”.
